Source: publication PMC9722916

Target: T1, rat TRPV2, C-terminally fused to GFP and a His8-tag (rat), Q9WUD2
T1 chain: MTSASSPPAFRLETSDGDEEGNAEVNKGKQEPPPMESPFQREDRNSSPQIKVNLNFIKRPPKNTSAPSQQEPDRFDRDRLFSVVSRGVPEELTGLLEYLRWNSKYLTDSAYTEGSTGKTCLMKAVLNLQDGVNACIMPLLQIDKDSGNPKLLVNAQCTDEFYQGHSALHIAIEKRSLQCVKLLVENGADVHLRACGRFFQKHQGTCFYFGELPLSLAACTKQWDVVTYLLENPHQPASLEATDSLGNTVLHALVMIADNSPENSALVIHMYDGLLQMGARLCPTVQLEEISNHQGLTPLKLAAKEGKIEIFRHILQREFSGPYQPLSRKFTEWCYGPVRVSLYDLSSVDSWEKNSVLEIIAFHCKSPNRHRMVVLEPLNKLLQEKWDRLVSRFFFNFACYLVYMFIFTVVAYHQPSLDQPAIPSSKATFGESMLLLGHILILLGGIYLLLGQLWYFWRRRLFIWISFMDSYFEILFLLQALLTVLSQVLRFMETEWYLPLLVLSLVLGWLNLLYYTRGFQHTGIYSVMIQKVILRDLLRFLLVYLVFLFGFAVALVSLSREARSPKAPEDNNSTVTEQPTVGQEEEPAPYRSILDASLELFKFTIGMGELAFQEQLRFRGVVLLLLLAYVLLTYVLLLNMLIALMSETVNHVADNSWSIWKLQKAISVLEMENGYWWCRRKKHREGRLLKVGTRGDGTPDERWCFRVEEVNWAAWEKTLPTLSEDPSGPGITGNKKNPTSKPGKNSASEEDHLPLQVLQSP
Experiment: cryo-EM structure; purified rat TRPV2 in GDN (20 mM Tris 8.0, 150 mM NaCl, 0.4 mg/ml GDN), incubated with C16 (50 uM) and probenecid (2 mM), alone or in combination, at room temperature for 15 min; C4 symmetry (C16 and probenecid structures), C1 symmetry (C16+probenecid structures)
Details: remark: other sources report otherwise

B1: rat TRPV2, C-terminally fused to GFP and a His8-tag, Q9WUD2 1-761 (natural protein)
chain: MTSASSPPAFRLETSDGDEEGNAEVNKGKQEPPPMESPFQREDRNSSPQIKVNLNFIKRPPKNTSAPSQQEPDRFDRDRLFSVVSRGVPEELTGLLEYLRWNSKYLTDSAYTEGSTGKTCLMKAVLNLQDGVNACIMPLLQIDKDSGNPKLLVNAQCTDEFYQGHSALHIAIEKRSLQCVKLLVENGADVHLRACGRFFQKHQGTCFYFGELPLSLAACTKQWDVVTYLLENPHQPASLEATDSLGNTVLHALVMIADNSPENSALVIHMYDGLLQMGARLCPTVQLEEISNHQGLTPLKLAAKEGKIEIFRHILQREFSGPYQPLSRKFTEWCYGPVRVSLYDLSSVDSWEKNSVLEIIAFHCKSPNRHRMVVLEPLNKLLQEKWDRLVSRFFFNFACYLVYMFIFTVVAYHQPSLDQPAIPSSKATFGESMLLLGHILILLGGIYLLLGQLWYFWRRRLFIWISFMDSYFEILFLLQALLTVLSQVLRFMETEWYLPLLVLSLVLGWLNLLYYTRGFQHTGIYSVMIQKVILRDLLRFLLVYLVFLFGFAVALVSLSREARSPKAPEDNNSTVTEQPTVGQEEEPAPYRSILDASLELFKFTIGMGELAFQEQLRFRGVVLLLLLAYVLLTYVLLLNMLIALMSETVNHVADNSWSIWKLQKAISVLEMENGYWWCRRKKHREGRLLKVGTRGDGTPDERWCFRVEEVNWAAWEKTLPTLSEDPSGPGITGNKKNPTSKPGKNSASEEDHLPLQVLQSP
How did the stoichiometry N turn out when B1 was run?
The stoichiometry N was 4.
